Reference: patent US20050042624A1, “Tumor antigen” (Kyogo ITOH, priority 2001, published 2005)

System: OK-CTLd
Assay: IFN-γ production from OK-CTLd against COS-7 cells co-transfected with cDNA clone and HLA-A0207 (ELISA)
Format: cell-based, human
Protocol: Cryopreserved OK-CTLd was cultured in the presence of 100 U/ml of IL-2 for 2 weeks or more to use in the experiments.
A cDNA library of SW620 cells was pooled so that each pool contained 100 clones, and 200 ng of the cDNA pooled in each well and 200 ng of the HLA-A0207 cDNA were mixed in 100 ul of lipofectoamine (Invitrogen Corp.)/Opti-MEM (Invitrogen Corp.) 1:200 mixture for 30 min. 50 μl of the obtained mixture was added to a simian kidney cell line COS-7 (1×10^4), and incubated for 6 h for co-transduction. Then, RPMI-1640 culture medium containing 10% FCS was added to and culturing was carried out for 2 days, followed by addition of OK-CTLd (2×10^5) to each well. After a further 18 h incubation, 100 μl of the supernatant was collected, and IFN-γ production was measured by ELISA. In this case, as a negative control, using COS-7 cells into which the gene had not been transfected as a target, IFN-γ production from OK-CTLd was examined and the value of IFN-γ produced was subtracted as a background from that of each measurement.
A pool of cDNA library was screened with the criteria in which cDNA capable of enhancing IFN-γ production from OK-CTLd was judged as a positive one having CTL-activating ability. […]

B1: SW620-cl.48: cDNA clone from SW620 encoding SW620-48-PP (nucleic acid, listed as Homo sapiens)
DNA: CCTTTCCAAGGGAGTGGTTGTGTGATCGCCATCTTAGGGAAAAGATGTTCTCGTCCGTGGCGCACCTGGCGCGGGCGAACCCCTTCAACACGCCACATCTGCAGCTGGTGCACGATGGTCTCGGGGACCTCCGCAGCAGCTCCCCAGGGCCCACGGGCCAGCCCCGCCGCCCTCGCAACCTGGCAGCCGCCGCCGTGGAAGAGTACAGTTGTGAATTTGGCTCCGCGAAGTATTATGCACTGTGTGGCTTTGGTGGGGTCTTAAGTTGTGGTCTGACACACACTGCTGTGGTTCCCCTGGATTTAGTGAAATGCCGTATGCAGGTGGACCCCCAAAAGTACAAGGGCATATTTAACGGATTCTCAGTTACACTTAAAGAGGATGGTGTTCGTGGTTTGGCTAAAGGATGGGCTCCGACTTTCCTTGGCTACTCCATGCAGGGACTCTGCAAGTTTGGCTTTTATGAAGTCTTTAAAGTCTTGTATAGCAATATGCTTGGAGAGGAGAATACTTATCTCTGGCGCACATCACTATATTTGGCTGCCTCTGCCAGTGCTGAATTCTTTGCTGACATTGCCCTGGCTCCTATGGAAGCTGCTAAGGTTCGAATTCAAACCCAGCCAGGTTATGCCAACACTTTGAGGGATGCAGCTCCCAAAATGTATAAGGAAGAAGGCCTAAAAGCATTCTACAAGGGGGTTGCTCCTCTCTGGATGAGACAGATACCATACACCATGATGAAGTTCGCCTGCTTTGAACGTACTGTTGAAGCACTGTACAAGTTTGTGGTTCCTAAGCCCCGCAGTGAATGTTCAAAGCCAGAGCAGCTGGTTGTAACATTTGTAGCAGGTTACATAGCTGGAGTCTTTTGTGCAATTGTTTCTCACCCTGCTGATTCTGTGGTATCTGTGTTGAATAAAGAAAAAGGTAGCAGTGCTTCTCTGGTCCTCAAGAGACTTGGATTTAAAGGTGTATGGAAGGGACTGTTTGCCCGTATCATCATGATTGGTACCCTGACTGCACTACAGTGGTTTATCTATGACTCCGTGAAGGTCTACTTCAGACTTCCTCGCCCTCCTCCACCCGAGATGCCAGAGTCTCTGAAGAAGAAGCTTGGGTTAACTCAGTAGTTAGATCAAAGCAAATGTGGACTGAATCTGCTTGTTGATCAGTGTTGAAGAAAGTGCAAAAGGAACTTTTATATATTTGACAGTGTAGGAAATTGTCTATTCCTGATATAATTACTGTAGTACTCTTGCTTAAGGCAAGAGTTTCAGATTTACTGTTGAAATAAACCCAACTCTTCATGAAAAAAAAAAAAAAA
- recognition of cDNA clone by OK-CTLd, enhancement of IFN-γ production: recognized by OK-CTLd in an HLA-A2-restricted manner and in a dose dependent manner of plasmid
